Reference: article PMC4411124

What was measured:
[1] = molecular target: T1, SoxR (Stenotrophomonas maltophilia K279a) (UniProt B2FRT7); experiment: EMSA
T1 sequence: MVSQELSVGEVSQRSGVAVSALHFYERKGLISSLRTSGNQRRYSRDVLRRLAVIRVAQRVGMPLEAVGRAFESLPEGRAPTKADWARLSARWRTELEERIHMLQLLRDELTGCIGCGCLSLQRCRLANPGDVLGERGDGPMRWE

[2] = molecular target: T1, SoxR (Stenotrophomonas maltophilia K279a); experiment: competition

Sequence | binding [1] | binding [2]
GCGGATCACCGCCAGCCGGCGCAGCACGTCGCGGCTGTAGCGGCGCTGGTTACCCGAAGTGCGCAGGCTGCTGATCAGCCCCTTGCGCTCGTAGAAGTGCAGCGCGGAAACCGCCACGCCACTGCGCTGGGAGACTTCGCCAACGCTCAGTTCCTGGGACACCATTGCTTGAAAGACCAGTACTGTGAGGTGTCATGCTGCTATCTTCGCCGTCGGTTGACAAGCGCGGCCCGCATCTGACCCGTATGACCCCGACCCTC (double strand) [mfsA-soxR promoter fragment, 258 bp, mutated SoxR box] | no binding | 
GAGGGTCGGGGTCATACGGGTCAGATGCGGGCCGCGCTTGTCAACCGACGGCGAAGATAGCAGCATGACACCTCAACTGCAGTTGAGGTCAAGCAATGGTGTCCCAGGAACTGAGCGTTGGCGAAGTCTCCCAGCGCAGTGGCGTGGCGGTTTCCGCGCTGCACTTCTACGAGCGCAAGGGGCTGATCAGCAGCCTGCGCACTTCGGGTAACCAGCGCCGCTACAGCCGCGACGTGCTGCGCCGGCTGGCGGTGATCCGC (double strand) [mfsA-soxR promoter fragment, 258 bp, wild type] | binds | binds
